Data on 7 molecules can be found in patent US20170016905A1 (VAR2 PHARMACEUTICALS, published 2017).

B1: DBL2X-DBL4ε (3D7, Baculo) (other)
chain: LTNCYKCDKCKSEQSKKNNKNWIWKKSSGKEGGLQKEYANTIGLPPRTQSLCLVVCLDEKGKKTQELKNIRTNSELLKEWIIAAFHEGKNLKPSHEKKNDDNGKKLCKALEYSFADYGDLIKGTSIWDNEYTKDLELNLQKIFGKLFRKYIKKNNTAEQDTSYSSLDELRESWWNTNKKYIWLAMKHGAGMNSTTCCGDGSVTGSGSSCDDIPTIDLIPQYLRFLQEWVEHFCKQRQEKVKPVIENCKSCKESGGTCNGECKTECKNKCEVYKKFIEDCKGGDGTAGSSWVKRWDQIYKRYSKYIEDAKRNRKAGTKNCGPSSTTNAAENKCVQSDIDSFFKHLIDIGLTTPSSYLSIVLDDNICGADKAPWTTYTTYTTTEKCNKETDKSKLQQCNTAVVVNVPSPLGNTPHGYKYACQCKIPTNEETCDDRKEYMNQWSCGSARTMKRGYKNDNYELCKYNGVDVKPTTVRSNSSKLDDKDVTFFNLFEQWNKEIQYQIEQYMTNTKISCNNEKNVLSRVSDEAAQPKFSDNERDRNSITHEDKNCKEKCKCYSLWIEKINDQWDKQKDNYNKFQRKQIYDANKGSQNKKVVSLSNFLFFSCWEEYIQKYFNGDWSKIKNIGSDTFEFLIKKCGNDSGDGETIFSEKLNNAEKKCKENESTNNKMKSSETSCDCSEPIYIRGCQPKIYDGKIFPGKGGEKQWICKDTIIHGDTNGACIPPRTQNLCVGELWDKRYGGRSNIKNDTKESLKQKIKNAIQKETELLYEYHDKGTAIISRNPMKGQKEKEEKNNDSNGLPKGFCHAVQRSFIDYKNMILGTSVNIYEYIGKLQEDIKKIIEKGTTKQNGKTVGSGAENVNAWWKGIEGEMWDAVRCAITKINKKQKKNGTFSIDECGIFPPTGNDEDQSVSWFKEWSEQFCIERLQYEKNIRDACTNNGQGDKIQGDCKRKCEEYKKYISEKKQEWDKQKTKYENKYVGKSASDLLKENYPECISANFDFIFNDNIEYKTYYPYGDYSSICSCEQVKYYEYNNAEKKNNKSLCHEKGNDRTWSKKYIKKLENGRTLEGVYVPPRRQQLCLYELFPIIIKNKNDITNAKKELLETLQIVAEREAYYLWKQYHAHNDTTYLAHKKACCAIRGSFYDLEDIIKGNDLVHDEYTKYIDSKLNEIFDSSNKNDIETKRARTDWWENEAIAVPNITGANKSDPKTIRQLVWDAMQSGVRKAIDEEKEKKKPNENFPPCMGVQHIGIAKPQFIRWLEEWTNEFCEKYTKYFEDMKSNCNLRKGADDCDDNSNIECKKACANYTNWLNPKRIEWNGMSNYYNKIYRKSNKESEDGKDYSMIMEPTVIDYLNKRCNGEINGNYICCSCKNIGENSTSGTVNKKLQKKETQCEDNKGPLDLMNKVLNKMDPKYSEHKMKCTEVYLEHVEEQLKEIDNAIKDYKLYPLD
notes: not shown: V5 and His tag at the C-terminal (modified pAcGP67-A)
B2: DBL1-ID2b (FCR3, Baculo) (other)
chain: HSDSGKYDPCEKKLPPYDDNDQWKCQQNSSDGSGKPENICVPPRRERLCTYNLENLKFDKIRDNNAFLADVLLTARNEGEKIVQNHPDTNSSNVCNALERSFADLADIIRGTDQWKGTNSNLEKNLKQMFAKIRENDKVLQDKYPKDQKYTKLREAWWNANRQKVWEVITCGARSNDLLIKRGWRTSGKSDRKKNFELCRKCGHYEKEVPTKLDYVPQFLRWLTEWIEDFYREKQNLIDDMERHREECTREDHKSKEGTSYCSTCKDKCKKYCECVKKWKTEWENQENKYKDLYEQNKNKTSQKNTSRYDDYVKDFFEKLEANYSSLENYIKGDPYFAEYATKLSFILNPSDANNPSGETANHNDEACNCNESGISSVGQAQTSGPSSNKTCITHSSIKTNKKKECKDVKLGVRENDKDLKICVIEDTSLSGVDNCCCQDLLGILQENCSDNKRGSSSNDSCDNKNQDECQKKLEKVFASLTNGYKCDKCKSGTSRSKKKWIWKKSSGNEEGLQEEYANTIGLPPRTQSLYLGNLPKLENVCEDVKDINFDTKEKFLAGCLIVSFHEGKNLKKRYPQNKNSGNKENLCKALEYSFADYGDLIKGTSIWDNEYTKDLELNLQNNFGKLFGKYIKKNNTAEQDTSYSSLDELRESWWNTNKKYIWTAMKHGAEMNITTCNADGSVTGSGSSCDDIPTIDLIPQYLRFLQEWVENFCEQRQAKVKDVITNCKSCKESGNKCKTECKTKCKDECEKYKKFIEACGTAGGGIGTAGSPWSKRWDQIYKRYSKHIEDAKRNRKAGTKNCGTSSTTNAAASTDENKCVQSDIDSFFKHLIDIGLTTPSSYLSNVLDDNICGADKAPWTTYTTYTTTEKCNKERDKSKSQSSDTLVVVNVPSPLGNTPYRYKYACQCKIPTNEETCDDRKEYMNQWSCGSARTMKRGYKNDNYELCKYNGVDVKPTTVRSNSSKLDGNDVTFFNLFEQWNKEIQYQIEQYMTNANISCIDEKEVLDSVSDEGTPKVRGGYEDGRNNNTDQGTNCKEKCKCYKLWIEKINDQWGKQKDNYNKFRSKQIYDANKGSQNKKVVSLSNFLFFSCWEEYIQKYFNGDWSKIKNIGSDTFEFLIKKCGNNSAHGEEIFNEKLKNAEKKCKENESTDTNINK
notes: Range derived by me from the FCR3 DBL1X forward primer (HSDSGK) and the FCR3 ID2b reverse primer (TDTNINK); also called DBL1X-ID2b; not shown: V5 and His tag at the C-terminal (modified pAcGP67-A)
B3: ID1-DBL3ε (3D7, Baculo) (other)
chain: LSFILNSSDANNPSEKIQKNNDEVCNCNESGIASVEQEQISDPSSNKTCITHSSIKANKKKVCKHVKLGVRENDKDLRVCVIEHTSLSGVENCCCQDFLRILQENCSDNKSGSSSNGSCNNKNQEACEKNLEKVLASLTNCYKCDKCKSEQSKKNNKNWIWKKSSGKEGGLQKEYANTIGLPPRTQSLCLVVCLDEKGKKTQELKNIRTNSELLKEWIIAAFHEGKNLKPSHEKKNDDNGKKLCKALEYSFADYGDLIKGTSIWDNEYTKDLELNLQKIFGKLFRKYIKKNNTAEQDTSYSSLDELRESWWNTNKKYIWLAMKHGAGMNSTTCCGDGSVTGSGSSCDDIPTIDLIPQYLRFLQEWVEHFCKQRQEKVKPVIENCKSCKESGGTCNGECKTECKNKCEVYKKFIEDCKGGDGTAGSSWVKRWDQIYKRYSKYIEDAKRNRKAGTKNCGPSSTTNAAENKCVQSDIDSFFKHLIDIGLTTPSSYLSIVLDDNICGADKAPWTTYTTYTTTEKCNKETDKSKLQQCNTAVVVNVPSPLGNTPHGYKYACQCKIPTNEETCDDRKEYMNQWSCGSARTMKRGYKNDNYELCKYNGVDVKPTTVRSNSSKLDDKDVTFFNLFEQWNKEIQYQIEQYMTNTKISCNNEKNVLSRVSDEAAQPKFSDNERDRNSITHEDKNCKEKCKCYSLWIEKINDQWDKQKDNYNKFQRKQIYDANKGSQNKKVVSLSNFLFFSCWEEYIQKYFNGDWSKIKNIGSDTFEFLIKKCGNDSGDGETIFSEKLNNAEKKCKENESTNNKMKSSETSCDCSEPIYIRGCQPKIYDGKIFPGKGGEKQWICKDTIIHGDTNGACIPPRTQNLCVGELWDKRYGGRSNIKNDTKESLKQKIKNAIQKETELLYEYHDKGTAIISRNPMKGQKEKEEKNNDSNGLPKGFCHAVQRSFIDYKNMILGTSVNIYEYIGKLQEDIKKIIEKGTTKQNGKTVGSGAENVNAWWKGIEGEMWDAVRCAITKINKKQKKNGTFSIDECGIFPPTGNDEDQSVSWFKEWSEQFCIERLQYEKNIRDACTNNGQGDKIQGDCKRKCEEYKKYISEKKQEWDKQKTKYENKYVGKSASDLLKENYPECISANFDFIFNDNIEYKTYYPYGDYSSICSCEQVKYYEYNNAE
notes: as for B1
B4: ID1-DBL4ε (3D7, Baculo) (other)
chain: LSFILNSSDANNPSEKIQKNNDEVCNCNESGIASVEQEQISDPSSNKTCITHSSIKANKKKVCKHVKLGVRENDKDLRVCVIEHTSLSGVENCCCQDFLRILQENCSDNKSGSSSNGSCNNKNQEACEKNLEKVLASLTNCYKCDKCKSEQSKKNNKNWIWKKSSGKEGGLQKEYANTIGLPPRTQSLCLVVCLDEKGKKTQELKNIRTNSELLKEWIIAAFHEGKNLKPSHEKKNDDNGKKLCKALEYSFADYGDLIKGTSIWDNEYTKDLELNLQKIFGKLFRKYIKKNNTAEQDTSYSSLDELRESWWNTNKKYIWLAMKHGAGMNSTTCCGDGSVTGSGSSCDDIPTIDLIPQYLRFLQEWVEHFCKQRQEKVKPVIENCKSCKESGGTCNGECKTECKNKCEVYKKFIEDCKGGDGTAGSSWVKRWDQIYKRYSKYIEDAKRNRKAGTKNCGPSSTTNAAENKCVQSDIDSFFKHLIDIGLTTPSSYLSIVLDDNICGADKAPWTTYTTYTTTEKCNKETDKSKLQQCNTAVVVNVPSPLGNTPHGYKYACQCKIPTNEETCDDRKEYMNQWSCGSARTMKRGYKNDNYELCKYNGVDVKPTTVRSNSSKLDDKDVTFFNLFEQWNKEIQYQIEQYMTNTKISCNNEKNVLSRVSDEAAQPKFSDNERDRNSITHEDKNCKEKCKCYSLWIEKINDQWDKQKDNYNKFQRKQIYDANKGSQNKKVVSLSNFLFFSCWEEYIQKYFNGDWSKIKNIGSDTFEFLIKKCGNDSGDGETIFSEKLNNAEKKCKENESTNNKMKSSETSCDCSEPIYIRGCQPKIYDGKIFPGKGGEKQWICKDTIIHGDTNGACIPPRTQNLCVGELWDKRYGGRSNIKNDTKESLKQKIKNAIQKETELLYEYHDKGTAIISRNPMKGQKEKEEKNNDSNGLPKGFCHAVQRSFIDYKNMILGTSVNIYEYIGKLQEDIKKIIEKGTTKQNGKTVGSGAENVNAWWKGIEGEMWDAVRCAITKINKKQKKNGTFSIDECGIFPPTGNDEDQSVSWFKEWSEQFCIERLQYEKNIRDACTNNGQGDKIQGDCKRKCEEYKKYISEKKQEWDKQKTKYENKYVGKSASDLLKENYPECISANFDFIFNDNIEYKTYYPYGDYSSICSCEQVKYYEYNNAEKKNNKSLCHEKGNDRTWSKKYIKKLENGRTLEGVYVPPRRQQLCLYELFPIIIKNKNDITNAKKELLETLQIVAEREAYYLWKQYHAHNDTTYLAHKKACCAIRGSFYDLEDIIKGNDLVHDEYTKYIDSKLNEIFDSSNKNDIETKRARTDWWENEAIAVPNITGANKSDPKTIRQLVWDAMQSGVRKAIDEEKEKKKPNENFPPCMGVQHIGIAKPQFIRWLEEWTNEFCEKYTKYFEDMKSNCNLRKGADDCDDNSNIECKKACANYTNWLNPKRIEWNGMSNYYNKIYRKSNKESEDGKDYSMIMEPTVIDYLNKRCNGEINGNYICCSCKNIGENSTSGTVNKKLQKKETQCEDNKGPLDLMNKVLNKMDPKYSEHKMKCTEVYLEHVEEQLKEIDNAIKDYKLYPLD
notes: as for B1

T1 sequence (P21793 31-360): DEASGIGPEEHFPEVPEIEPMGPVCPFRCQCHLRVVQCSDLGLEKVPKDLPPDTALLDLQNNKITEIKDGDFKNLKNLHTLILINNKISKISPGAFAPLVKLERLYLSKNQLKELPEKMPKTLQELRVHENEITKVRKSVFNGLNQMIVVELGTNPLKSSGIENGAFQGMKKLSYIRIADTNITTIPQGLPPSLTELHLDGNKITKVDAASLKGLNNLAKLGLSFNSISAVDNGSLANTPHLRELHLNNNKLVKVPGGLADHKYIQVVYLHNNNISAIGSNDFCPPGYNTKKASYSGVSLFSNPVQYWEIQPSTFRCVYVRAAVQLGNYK

In one test the target is CSPG (bovine) (D8428, Sigma) (bovine) (UniProt P21793). Kind of test: quartz crystal microbalance (Attana A100), CSPG coated, 1:1 fit.
Chain of CSPG (bovine) (D8428, Sigma) (bovine) (P21793 31-360): as above
By Kd is commonly meant a measure of binding affinity in units of concentration. Read a low Kd as a tighter complex. For the molecule ID1-DBL4ε (FCR3, Baculo), the Kd is 8.6 nM.

As to DBL2X-DBL4ε (FCR3, Baculo), the Kd came to 2.4 nM.

Regarding ID1-DBL3ε (FCR3, Baculo), the Kd is 0.3 nM. This Kd lies about 8-fold lower than the previous one.

A further test concerns the target T1, CSPG (bovine) (D8428, Sigma) (bovine, UniProt P21793 31-360, carries chondroitin sulfate A (CSA) glycosaminoglycan chain(s); the filing attributes the binding of VAR2CSA to this glycan).
T1 construct: also called chondroitin sulfate proteoglycan; CSA proteoglycan
Described as above.
B1 displayed a dissociation constant (Kd) of 1.2 nM.

The molecule B2 had a Kd of 1.5 nM.

For B3, the dissociation constant Kd was 8.5 nM.

In the case of B4, binding was characterised by a dissociation constant (Kd) of 9.4 nM.
